For series [1], the system named is Cre recombinase (bacteriophage P1). The experiment in a line: cell_activity. The note with it: positive control, S. pombe, day 7.
Series [2] has as its target T1, phiC31 integrase (Streptomyces bacteriophage phiC31) (UniProt Q9T221).
T1 sequence: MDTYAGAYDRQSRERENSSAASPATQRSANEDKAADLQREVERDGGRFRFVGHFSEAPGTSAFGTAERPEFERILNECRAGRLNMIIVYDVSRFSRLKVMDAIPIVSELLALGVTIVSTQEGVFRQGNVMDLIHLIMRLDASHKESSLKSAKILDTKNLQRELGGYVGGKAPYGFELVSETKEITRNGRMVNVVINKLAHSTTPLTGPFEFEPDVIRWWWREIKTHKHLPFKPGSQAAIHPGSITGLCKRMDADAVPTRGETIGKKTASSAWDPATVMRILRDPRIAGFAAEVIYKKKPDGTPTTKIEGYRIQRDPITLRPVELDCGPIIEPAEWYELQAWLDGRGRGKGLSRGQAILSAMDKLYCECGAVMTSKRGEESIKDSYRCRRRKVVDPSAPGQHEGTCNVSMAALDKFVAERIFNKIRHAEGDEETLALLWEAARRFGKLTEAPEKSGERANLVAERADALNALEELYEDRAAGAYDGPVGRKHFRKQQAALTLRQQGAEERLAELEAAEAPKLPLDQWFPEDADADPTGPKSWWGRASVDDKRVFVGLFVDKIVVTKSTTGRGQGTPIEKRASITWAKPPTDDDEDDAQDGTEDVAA
The experiment in a line: cell_activity. The note with it: attP x attB, S. pombe, day 7.

On to lox, for which the activity in series [1] was determined as 100 % excision.

In the case of phiC31 attP x attB, in series [2], the activity is 80 % excision.

(Values after US20110136237.)
